Reference: patent US20180118800

T1: ITDPLVPRHGDGS (SEQ ID NO: 8)
T1 sequence: ITDPLVPRHGDGS

T2: PLTPRHGDGSF (SEQ ID NO: 6)
T2 sequence: PLTPRHGDGSF

T3: PVSGPRHGDGSF (SEQ ID NO: 7)
T3 sequence: PVSGPRHGDGSF

T4: His6-Smt3-GLP-2 analog fusion protein
T4 chain: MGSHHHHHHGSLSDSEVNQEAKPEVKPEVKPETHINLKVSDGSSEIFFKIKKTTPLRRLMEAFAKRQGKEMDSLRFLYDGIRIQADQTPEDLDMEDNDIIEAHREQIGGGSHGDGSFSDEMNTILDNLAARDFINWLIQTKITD


Columns and labels:
[1] = tested on: His6-Smt3-LTPR-GLP-2 analog fusion protein
[2] = tested on: T1, ITDPLVPRHGDGS (SEQ ID NO: 8)
[3] = tested on: T2, PLTPRHGDGSF (SEQ ID NO: 6)
[4] = tested on: T3, PVSGPRHGDGSF (SEQ ID NO: 7)
[5] = molecular target: T4, His6-Smt3-GLP-2 analog fusion protein

Molecule	thrombin cleavage of fusion protein, RP-HPLC (C18) [1]	thrombin cleavage of fusion protein, SDS-PAGE [1]	thrombin cleavage of synthetic peptide, RP-HPLC (C18) [2]	thrombin cleavage of synthetic peptide, RP-HPLC (C18) [3]	thrombin cleavage of synthetic peptide, RP-HPLC (C18) [4]	U1p1 protease cleavage of fusion protein, SDS-PAGE [5]
thrombin	produced a complete cleaved product without partially cleaved segments after thrombin cleavage	thrombin had only one cleavage site on the His6-Smt3-Linker-GLP-2 analog fusion protein	Each of the three peptides was cleaved with thrombin	PLTPRHGDGSF was cleaved the most thoroughly	Each of the three peptides was cleaved with thrombin	–
U1p1 protease (protein) LVPELNEKDDDQVQKALASRENTQLMNRDNIEITVRDFKTLAPRRWLNDTIIEFFMKYIEKSTPNTVAFNSFFYTNLSERGYQGVRRWMKRKKTQIDKLDKIFTPINLNQSHWALGIIDLKKKTIGYVDSLSNGPNAMSFAILTDLQKYVMEESKHTIGEDFDLIHLDCPQQPNGYDCGIYVCMNTLYGSADAPLDFDYKDAIRMRRFIAHLILTDALK	–	–	–	–	–	U1p1 protease had only one cleavage cite on the His6-Smt3-GLP-2 analog fusion protein but cleaved far less efficiently than thrombin cleaving a His6-Smt3-Linker-GLP-2 analog fusion protein
